Reference: the supplement of paper PMC7877785
± gives the uncertainty stated by the source.

Assay: self-splicing fitness, log relative to wild type (ln ratio); higher = more splicing; Tetrahymena group I intron in knt gene, E. coli kanamycin selection, DiMSum; sequences stand for … in CUCUCU…GGAGGGAAAAGUUAUCAGGCAUGCACCUGGUAGCUAGUCUUUAAACCAAUAGAUUGCAUCGGUUUAAAAGGCAAGACCGUCAAAUUGCGGGAAAGGGGUCAACAGCCGUUCAGUACCAAGUCUCAGGGGAAACUUUGAGAUGGCCUUGCAAAGGGUAUGGUAAUAAGCUGACGGACAUGGUCCUAACCACGCAGCCAAGUCCUAAGUCAACAGAUCUUCUGUUGAUAUGGAUGCAGUUCACAGACUAAAUGUCGGUCGGGGAAGAUGUAUUCUUCUCAUAAGAUAUAGUCGGACCUCUCCUUAAUGGGAGCUAGCGGAUGAAGUGAUGCAACACUGGAGCCGCUGGGAACUAAUUUGUAUGCGAAAGUAUAUUGAUUAGUUUUGGAGUACUCGUGGUCG
In short: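 Six replicate transformations of E. coli BL21(DE3) with a pET-22b(+) library were grown overnight at 37°C or 30°C. The library randomised all eight P1ex-region intron nucleotides, the intron lying in the knt kanamycin-resistance gene, and plates were LB agar with or without 25 μg/mL kanamycin plus 100 μg/mL carbenicillin, 50 μM IPTG and 0.2% rhamnose. Pooled colonies were amplicon-sequenced on an Illumina HiSeq 2500, and fitness is the DiMSum error-weighted combination of wild-type-normalised replicate fold changes, kanamycin versus none.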

Sequence | self-splicing fitness (ln) (30 °C) | self-splicing fitness (ln) (37 °C)
CACUAGCAAUAUUACGUGUA | -2 ± 0.11 | -1.47 ± 0.12
CACUAGCAAUAUUACGUGUU | -4.69 ± 0.23 | -2.88 ± 0.16
CACUAGCAAUAUUACGUUGG | -2.27 ± 0.11 | -2.03 ± 0.16
CAGAAGCAAUAUUACGACAC |  | -2.1 ± 0.29
CAGAAGCAAUAUUACGACUC | -0.803 ± 0.069 | -0.342 ± 0.095
CAGAAGCAAUAUUACGAUGG | -0.534 ± 0.064 | -0.254 ± 0.078
CAGAAGCAAUAUUACGCAGC | -3.43 ± 0.23 | -2.35 ± 0.24
CAGAAGCAAUAUUACGCCGU | -3.06 ± 0.21 | -1.94 ± 0.23
CAGAAGCAAUAUUACGCCUU | -1.78 ± 0.087 | -0.677 ± 0.11
CAGAAGCAAUAUUACGCGCC | -2.83 ± 0.25 | -1.34 ± 0.18
CAGAAGCAAUAUUACGCGGA | -3.15 ± 0.15 | -3.11 ± 0.17
CAGAAGCAAUAUUACGGAUA | -2.48 ± 0.13 | -1.43 ± 0.11
CAGAAGCAAUAUUACGGCCA | -1.5 ± 0.26 | -1.83 ± 0.21
CAGAAGCAAUAUUACGGCUG | -2.29 ± 0.19 | -2.49 ± 0.23
CAGAAGCAAUAUUACGGGCU | -3.96 ± 0.24 | -1.83 ± 0.16
CAGAAGCAAUAUUACGGUAC | -4.59 ± 0.28 | -1.72 ± 0.21
CAGAAGCAAUAUUACGUAAU | -3.4 ± 0.15 | -2.85 ± 0.21
CAGAAGCAAUAUUACGUCCA | -1.68 ± 0.14 | -1.44 ± 0.21
CAGAAGCAAUAUUACGUCUC | -1.79 ± 0.07 | -0.536 ± 0.084
CAGAAGCAAUAUUACGUGCG | -0.578 ± 0.07 | 0.0457 ± 0.099
CAGAAGCAAUAUUACGUUUU | -3.33 ± 0.14 | -3.58 ± 0.19
CAGCAGCAAUAUUACGAAUA | -2.35 ± 0.13 | -1.9 ± 0.12
CAGCAGCAAUAUUACGAAUG | -1.69 ± 0.061 | 0.012 ± 0.083
CAGCAGCAAUAUUACGAGAA |  | -3.16 ± 0.37
CAGCAGCAAUAUUACGAGGG | -3.15 ± 0.097 | -1.12 ± 0.093
CAGCAGCAAUAUUACGAUUA | -1.77 ± 0.1 | -1 ± 0.11

Sequence | self-splicing fitness (ln) (30 °C) | self-splicing fitness (ln) (37 °C)
CAGCAGCAAUAUUACGCCAC | -4.15 ± 0.26 | -3.31 ± 0.29
CAGCAGCAAUAUUACGCCCG | 0.0522 ± 0.12 | 0.33 ± 0.12
CAGCAGCAAUAUUACGCGAC | -2.71 ± 0.39 | -0.925 ± 0.25
CAGCAGCAAUAUUACGGAGU | -3.15 ± 0.12 | -2.49 ± 0.15
CAGCAGCAAUAUUACGGGCC | -3.41 ± 0.3 | -2.78 ± 0.24
CAGGAGCAAUAUUACGACCG | 0.66 ± 0.2 | 0.00703 ± 0.17
CAGGAGCAAUAUUACGACUC | -2.74 ± 0.11 | -2.14 ± 0.15
CAGGAGCAAUAUUACGAGCC | -2.71 ± 0.29 | -2.44 ± 0.49
CAGGAGCAAUAUUACGAGCG | -1.04 ± 0.13 | 0.24 ± 0.11
CAGGAGCAAUAUUACGCACU | -2.54 ± 0.5 | -1.2 ± 0.34
CAGGAGCAAUAUUACGCAGA | -2.76 ± 0.33 | -2.29 ± 0.2
CAGGAGCAAUAUUACGCCAG | -2.75 ± 0.32 | 
CAGGAGCAAUAUUACGCGCC |  | -2.5 ± 0.26
CAGGAGCAAUAUUACGCGGA | -2.78 ± 0.25 | 
CAGGAGCAAUAUUACGCGGU |  | -3.29 ± 0.47
CAGGAGCAAUAUUACGCUCU | -3.36 ± 0.26 | -2.41 ± 0.26
CAGGAGCAAUAUUACGCUGC | -4.3 ± 0.36 | -2.82 ± 0.36
CAGGAGCAAUAUUACGGCGG | -0.542 ± 0.074 | -0.0448 ± 0.091
CAGGAGCAAUAUUACGGGAC | -2.88 ± 0.25 | -3.24 ± 0.29
CAGGAGCAAUAUUACGGGUA | -4.12 ± 0.42 | -3.31 ± 0.35
CAGGAGCAAUAUUACGGUGU | -3.1 ± 0.15 | -2.66 ± 0.2
CAGGAGCAAUAUUACGGUUU | -3.2 ± 0.41 | 
CAGGAGCAAUAUUACGUAAA | -1.92 ± 0.25 | -1.24 ± 0.31
CAGGAGCAAUAUUACGUGCU | -2.91 ± 0.13 | -2.23 ± 0.14
CAGGAGCAAUAUUACGUUUU | -3.95 ± 0.35 | -2.3 ± 0.23
CAGUAGCAAUAUUACGACAA | -1.98 ± 0.19 | -1.62 ± 0.15

Sequence | self-splicing fitness (ln) (30 °C) | self-splicing fitness (ln) (37 °C)
CAGUAGCAAUAUUACGACCU | -0.458 ± 0.15 | -0.391 ± 0.2
CAGUAGCAAUAUUACGCGUG | -2.65 ± 0.18 | -1.86 ± 0.14
CAGUAGCAAUAUUACGCUAG | -2.14 ± 0.1 | -1.34 ± 0.1
CAGUAGCAAUAUUACGCUGU | -2.72 ± 0.17 | -2.99 ± 0.28
CAGUAGCAAUAUUACGGAGA | -2.32 ± 0.24 | 
CAGUAGCAAUAUUACGGAUC | -3.64 ± 0.43 | -1.48 ± 0.27
CAGUAGCAAUAUUACGGAUU | -2.84 ± 0.17 | -3.21 ± 0.27
CAGUAGCAAUAUUACGGGGG | -3.48 ± 0.33 | -2.02 ± 0.42
CAGUAGCAAUAUUACGGGUG | -0.853 ± 0.06 | -0.398 ± 0.078
CAGUAGCAAUAUUACGUAAG | 0.131 ± 0.069 | -0.159 ± 0.086
CAGUAGCAAUAUUACGUACU | -1.78 ± 0.12 | -1.3 ± 0.1
CAGUAGCAAUAUUACGUAGU | -2.5 ± 0.13 | -2.54 ± 0.18
CAGUAGCAAUAUUACGUAUU | -3.48 ± 0.2 | -1.81 ± 0.2
CAGUAGCAAUAUUACGUCAC | -2 ± 0.25 | 
CAGUAGCAAUAUUACGUCGG | -0.645 ± 0.078 | -0.0434 ± 0.1
CAGUAGCAAUAUUACGUUGU | -4.7 ± 0.28 | -3.14 ± 0.24
CAUAAGCAAUAUUACGACGC | -2.7 ± 0.25 | -0.823 ± 0.19
CAUAAGCAAUAUUACGAGAC | -3.9 ± 0.37 | 
CAUAAGCAAUAUUACGAGAG | -2.88 ± 0.18 | -1.32 ± 0.14
CAUAAGCAAUAUUACGAGCA | -3.98 ± 0.37 | -1.77 ± 0.2
CAUAAGCAAUAUUACGAGGU | -2.81 ± 0.16 | -2.6 ± 0.18
CAUAAGCAAUAUUACGAGUA | -2.34 ± 0.15 | -1.45 ± 0.15
CAUAAGCAAUAUUACGAUCA | -2.28 ± 0.21 | -1.87 ± 0.2
CAUAAGCAAUAUUACGAUGA | -2.58 ± 0.14 | -0.929 ± 0.13
CAUAAGCAAUAUUACGCCUC | -2.88 ± 0.39 | -1.75 ± 0.41
CAUAAGCAAUAUUACGCCUU | -3.7 ± 0.19 | -1.96 ± 0.17
